Data reported in publication PMC10470539, “Characterization of a novel aromatic substrate-processing microcompartment in Actinobacteria” (mBio, 2023).

Key:
[1] = target: ARO AldDh (ARO 2-aminomuconic-6-semialdehyde dehydrogenase homolog) from Micromonospora rosaria (Micromonospora rosaria); assay: SEC; purified ARO AldDh on analytical Superdex 200 10/300 GL in Buffer E (10 mM Tris-HCl pH 8.0, 0.5 M NaCl, 0.2 mM NAD+, 1 mM DTT, 5% glycerol); oligomer of the enzyme with itself
[2] = target: ARO dioxygenase beta subunit (2-aminophenol-1,6-dioxygenase beta subunit) from Micromonospora rosaria, His-tagged (Micromonospora rosaria); assay: crystal structure; ARO dioxygenase, sitting drop vapor diffusion at room temperature; 0.1 M Tris pH 8.0, 0.5 M ammonium, 28% PEG 8000; 1.75 Å, P1 cell
[3] = target: T1, ARO AldDh (2-aminomuconic-6-semialdehyde dehydrogenase homolog) (Micromonospora rosaria, UniProt A0A136PUC7); assay: coupled assay, absorption spectra, product 2-aminomuconate at […] nm; format: biochemical; details: 2-AMS generated in situ from 0.5 µM 2-AP by ARO dioxygenase; 20 µM NAD+, 100 mM potassium phosphate pH 7.5
T1 construct: gene AWW66_10300; E. coli BL21(DE3), codon-optimized, untagged (pLD69); ammonium sulfate and HIC enriched; primers imply N-term MTGLWSPTL, C-term VDLS
T1 sequence (A0A136PUC7 1-502): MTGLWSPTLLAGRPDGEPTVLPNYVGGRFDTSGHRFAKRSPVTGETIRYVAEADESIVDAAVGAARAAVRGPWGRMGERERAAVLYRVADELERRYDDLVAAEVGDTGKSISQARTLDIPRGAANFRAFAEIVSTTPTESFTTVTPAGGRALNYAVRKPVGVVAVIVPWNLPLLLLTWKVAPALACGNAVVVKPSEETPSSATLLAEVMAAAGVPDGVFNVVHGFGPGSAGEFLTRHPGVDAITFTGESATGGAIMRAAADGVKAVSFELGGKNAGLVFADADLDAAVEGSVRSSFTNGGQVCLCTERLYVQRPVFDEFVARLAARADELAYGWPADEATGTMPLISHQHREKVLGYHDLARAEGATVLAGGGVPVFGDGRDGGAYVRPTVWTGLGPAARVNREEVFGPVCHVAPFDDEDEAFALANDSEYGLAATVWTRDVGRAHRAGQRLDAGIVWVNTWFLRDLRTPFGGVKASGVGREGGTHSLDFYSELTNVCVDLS

[4] = substrate: Nc1ccc(Cl)cc1O; assay: purified protein; format: biochemical, Micromonospora rosaria; details: 10 mM sodium phosphate pH 8.0, room temperature, 27 µg enzyme in 1 mL
[5] = substrate: Nc1ccccc1O; assay: purified protein; format: biochemical, Micromonospora rosaria; details: 10 mM sodium phosphate pH 8.0, room temperature, 27 µg enzyme in 1 mL
[6] = substrate: Oc1ccccc1O; assay: purified protein; format: biochemical, Micromonospora rosaria; details: 10 mM sodium phosphate pH 8.0, room temperature, 27 µg enzyme in 1 mL

Molecule: ARO AldDh (ARO 2-aminomuconic-6-semialdehyde dehydrogenase homolog) from Micromonospora rosaria (enzyme)
- stoichiometry N [1]: 3

Molecule: ARO dioxygenase beta subunit (2-aminophenol-1,6-dioxygenase beta subunit) from Micromonospora rosaria, His-tagged (natural protein)
- stoichiometry N [2]: 2

Molecule: N/C(=C\C=C\C=O)C(=O)O [2-aminomuconate 6-semialdeyde]
- coupled assay, absorption spectra, product 2-aminomuconate at 326 nm [3]: ability to convert 2-aminomuconate 6-semialdeyde (2-AMS) to 2-aminomuconate in vitro

B1: ARO dioxygenase (2-aminophenol-1,6-dioxygenase; ARO AmnA and AmnB) (Micromonospora rosaria) (protein)
chain: MSRVFRVPLAPTRGGATTAPRTPAPAPAPTRPGIVAGCLSPHPPHLIYGENPPQNEPRSTGGWETLRWAYERLRARIRDVHKPDVLIVHAPHWITMVGHHVNCVPNPRGLSVEPIFPHLFRYRYDFRTDVELGEAIAEEASGLGLVTRTLRDPRVRVDYATIGALHLANPAWDIPVVSLSANNNPYFYSDASLTEMEVLGEATRLAVEATGRRAVLLASNSLSHLHWHEEPELPEDMEREHPYNNHQYRWDMKLLEAIRRGPTAPLRDLIPEHIEATASETKAGSLTWMLAAMGWPKVAGDVLGYGTIIGTGNAIVEWLPEGSHH
notes: E. coli BL21(DE3) co-expression (codon-optimized; pLD54 alpha, pLD59 beta); beta with C-terminal 6xHis via Gly/Ser linker, tag kept; alpha untagged; 140 kDa dimer of heterodimers; modelled alpha D3-H278, beta T30-G322; iron in beta subunit; primers imply alpha N-term MADRTG, beta N-term MSRVFR; with 2-aminophenol 1,6-dioxygenase alpha subunit
- Km [4]: 29 µM
- Km [5]: 70 µM
- Km [6]: 14 µM
